Results published in the supplement of paper PMC7877785.
± gives the uncertainty stated by the source.

Test: self-splicing fitness, log relative to wild type (ln ratio); higher = more splicing; Tetrahymena group I intron in knt gene, E. coli kanamycin selection, DiMSum; sequences stand for … in CUCUCU…GGAGGGAAAAGUUAUCAGGCAUGCACCUGGUAGCUAGUCUUUAAACCAAUAGAUUGCAUCGGUUUAAAAGGCAAGACCGUCAAAUUGCGGGAAAGGGGUCAACAGCCGUUCAGUACCAAGUCUCAGGGGAAACUUUGAGAUGGCCUUGCAAAGGGUAUGGUAAUAAGCUGACGGACAUGGUCCUAACCACGCAGCCAAGUCCUAAGUCAACAGAUCUUCUGUUGAUAUGGAUGCAGUUCACAGACUAAAUGUCGGUCGGGGAAGAUGUAUUCUUCUCAUAAGAUAUAGUCGGACCUCUCCUUAAUGGGAGCUAGCGGAUGAAGUGAUGCAACACUGGAGCCGCUGGGAACUAAUUUGUAUGCGAAAGUAUAUUGAUUAGUUUUGGAGUACUCGUGGUCG
Procedure, shortened: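 Colonies from six replicate transformations of E. coli BL21(DE3) were pooled and amplicon-sequenced on an Illumina HiSeq 2500. The library placed an intron with all eight P1ex-region nucleotides randomised inside the knt kanamycin-resistance gene on pET-22b(+), and cells grew overnight at 37°C or 30°C on LB agar with or without 25 μg/mL kanamycin (plus 100 μg/mL carbenicillin, 50 μM IPTG, 0.2% rhamnose). Fitness is the DiMSum error-weighted combination of wild-type-normalised replicate fold changes, kanamycin versus none.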

Row | Sequence | self-splicing fitness (ln) (30 °C) | self-splicing fitness (ln) (37 °C)
1 | ACUAAGCAAUAUUACGCCGC | -3.02 ± 0.35 | -1.86 ± 0.41
2 | GUUGAGCAAUAUUACGGGUC | -2.23 ± 0.26 | -1.89 ± 0.28
3 | ACCUAGCAAUAUUACGCACG | -0.85 ± 0.099 | 0.0662 ± 0.12
4 | CACUAGCAAUAUUACGGCAU | -4.16 ± 0.19 | -1.55 ± 0.14
5 | ACACAGCAAUAUUACGGCUG | -2.88 ± 0.12 | -1.42 ± 0.1
6 | AUAGAGCAAUAUUACGUACU | -0.65 ± 0.12 | 0.124 ± 0.14
7 | ACCCAGCAAUAUUACGGAUU | -0.86 ± 0.048 | -0.157 ± 0.061
8 | UUGAAGCAAUAUUACGAUCU | -1.3 ± 0.13 | -0.67 ± 0.14
9 | GACUAGCAAUAUUACGCGGU | -3.62 ± 0.17 | -3.27 ± 0.28
10 | GGCGAGCAAUAUUACGACGU | -1.36 ± 0.16 | -0.783 ± 0.21
11 | GCACAGCAAUAUUACGCAUG | -2.95 ± 0.19 | -0.809 ± 0.12
12 | UCCAAGCAAUAUUACGACAC | -2.35 ± 0.31 | -1.42 ± 0.38
13 | AGGAAGCAAUAUUACGGUUA | -0.766 ± 0.1 | -0.654 ± 0.1
14 | CAUGAGCAAUAUUACGACGU | -4.25 ± 0.39 | -0.969 ± 0.2
15 | GGCCAGCAAUAUUACGACAA | -2.78 ± 0.24 | -1.71 ± 0.19
16 | CGAAAGCAAUAUUACGCAUC |  | -2.75 ± 0.36
17 | UCUAAGCAAUAUUACGAUUA | -2.61 ± 0.33 | -1.94 ± 0.34
18 | UAUUAGCAAUAUUACGGUCG | -0.442 ± 0.13 | 0.383 ± 0.23
19 | CCACAGCAAUAUUACGUACA | -2.84 ± 0.19 | -2.96 ± 0.34
20 | UCAAAGCAAUAUUACGAUUU | -3.58 ± 0.24 | -2.3 ± 0.22

Row | Sequence | self-splicing fitness (ln) (30 °C) | self-splicing fitness (ln) (37 °C)
21 | UCAUAGCAAUAUUACGCGUU | -3.38 ± 0.27 | -3.03 ± 0.27
22 | GGUCAGCAAUAUUACGAAAC | -0.257 ± 0.22 | -0.396 ± 0.22
23 | UUAAAGCAAUAUUACGCGGA | -0.811 ± 0.097 | 0.458 ± 0.1
24 | UUAUAGCAAUAUUACGACAG | -1.09 ± 0.16 | -0.548 ± 0.21
25 | AAAGAGCAAUAUUACGUUCU | -2.77 ± 0.13 | -1.72 ± 0.13
26 | AUCUAGCAAUAUUACGACAG | -3.33 ± 0.3 | -2.68 ± 0.31
27 | AAGGAGCAAUAUUACGGCCA | -1.83 ± 0.19 | -1.66 ± 0.27
28 | CUUAAGCAAUAUUACGCGCU | -3.35 ± 0.22 | -2.5 ± 0.27
29 | GGGAAGCAAUAUUACGGGUG | -2.68 ± 0.13 | -2.12 ± 0.18
30 | UGAGAGCAAUAUUACGUCGA | -2.82 ± 0.39 | -3.1 ± 0.47
31 | UGCCAGCAAUAUUACGGGAU | -3.16 ± 0.13 | -2.44 ± 0.18
32 | CAGCAGCAAUAUUACGCUCU | -3.08 ± 0.16 | -2.08 ± 0.17
33 | CCGGAGCAAUAUUACGCCAA |  | -2.53 ± 0.26
34 | UUCAAGCAAUAUUACGCCAA | -0.664 ± 0.11 | -0.538 ± 0.11
35 | UGUAAGCAAUAUUACGCGGG | -4.06 ± 0.29 | -0.563 ± 0.15
36 | GUCAAGCAAUAUUACGAUGC | -1.3 ± 0.098 | -0.442 ± 0.11
37 | CAGCAGCAAUAUUACGGGUG | -1.35 ± 0.082 | -0.904 ± 0.085
38 | AUUGAGCAAUAUUACGAGGU | -3.14 ± 0.36 | -2.02 ± 0.36
39 | GCCCAGCAAUAUUACGGGAA | 0.0209 ± 0.051 | 0.313 ± 0.06
40 | ACGAAGCAAUAUUACGUCAC | -4.98 ± 0.39 | -2.43 ± 0.16

Row | Sequence | self-splicing fitness (ln) (30 °C) | self-splicing fitness (ln) (37 °C)
41 | AGUGAGCAAUAUUACGCUUC | -2.41 ± 0.25 | -2.7 ± 0.34
42 | AUACAGCAAUAUUACGUUGU | -2.77 ± 0.098 | -2.81 ± 0.13
43 | AAUCAGCAAUAUUACGAUUC | -2.99 ± 0.2 | -3.73 ± 0.39
44 | CGGCAGCAAUAUUACGCCGA | -2.87 ± 0.29 | -2.76 ± 0.34
45 | GGUCAGCAAUAUUACGUGGG | -2.15 ± 0.089 | -2.38 ± 0.15
46 | AUCGAGCAAUAUUACGGAUU | -3.48 ± 0.22 | -1.26 ± 0.17
47 | UGGAAGCAAUAUUACGGAUU | -1.49 ± 0.08 | -1.68 ± 0.12
48 | CGGUAGCAAUAUUACGUAGC | -3.25 ± 0.2 | -3.13 ± 0.27
49 | GCAGAGCAAUAUUACGCGUA | -2.94 ± 0.33 | -2.22 ± 0.25
50 | AAACAGCAAUAUUACGCUCA | -0.43 ± 0.081 | 0.168 ± 0.1
51 | CAUAAGCAAUAUUACGAUUC | -3.25 ± 0.2 | -3.11 ± 0.26
52 | AUGCAGCAAUAUUACGUGAA | -2.44 ± 0.12 | -0.683 ± 0.13
53 | GGAUAGCAAUAUUACGAGUA | -2.54 ± 0.48 | -1.14 ± 0.16
54 | CUACAGCAAUAUUACGUCAG | -1.55 ± 0.12 | -1.18 ± 0.13
55 | ACUCAGCAAUAUUACGCCCG | -1.62 ± 0.14 | -0.599 ± 0.18
56 | ACCUAGCAAUAUUACGUCGU | -0.733 ± 0.045 | -0.455 ± 0.059
57 | AUUAAGCAAUAUUACGCGUC | -2.77 ± 0.3 | -2.19 ± 0.38
58 | GUACAGCAAUAUUACGGAGG | -3.92 ± 0.34 | -2.92 ± 0.44
59 | UAGCAGCAAUAUUACGGUUU | -0.986 ± 0.051 | -0.354 ± 0.067
60 | CCUCAGCAAUAUUACGGCCA | -2.68 ± 0.33 | -2.62 ± 0.33
